Results as given in patent publication EP4695300A2 (dated 2026).
Residue numbers refer to the chain shown, from its start. Each block holds one binder with its values, some of them ahead of it.

Columns and labels:
[1] = biological target: T1, PTGFRN as used in the Octet / BLI affinity measurement (UniProt Q9P2B2 26-832, limits assumed); experiment: Octet method
T1 sequence (looked up): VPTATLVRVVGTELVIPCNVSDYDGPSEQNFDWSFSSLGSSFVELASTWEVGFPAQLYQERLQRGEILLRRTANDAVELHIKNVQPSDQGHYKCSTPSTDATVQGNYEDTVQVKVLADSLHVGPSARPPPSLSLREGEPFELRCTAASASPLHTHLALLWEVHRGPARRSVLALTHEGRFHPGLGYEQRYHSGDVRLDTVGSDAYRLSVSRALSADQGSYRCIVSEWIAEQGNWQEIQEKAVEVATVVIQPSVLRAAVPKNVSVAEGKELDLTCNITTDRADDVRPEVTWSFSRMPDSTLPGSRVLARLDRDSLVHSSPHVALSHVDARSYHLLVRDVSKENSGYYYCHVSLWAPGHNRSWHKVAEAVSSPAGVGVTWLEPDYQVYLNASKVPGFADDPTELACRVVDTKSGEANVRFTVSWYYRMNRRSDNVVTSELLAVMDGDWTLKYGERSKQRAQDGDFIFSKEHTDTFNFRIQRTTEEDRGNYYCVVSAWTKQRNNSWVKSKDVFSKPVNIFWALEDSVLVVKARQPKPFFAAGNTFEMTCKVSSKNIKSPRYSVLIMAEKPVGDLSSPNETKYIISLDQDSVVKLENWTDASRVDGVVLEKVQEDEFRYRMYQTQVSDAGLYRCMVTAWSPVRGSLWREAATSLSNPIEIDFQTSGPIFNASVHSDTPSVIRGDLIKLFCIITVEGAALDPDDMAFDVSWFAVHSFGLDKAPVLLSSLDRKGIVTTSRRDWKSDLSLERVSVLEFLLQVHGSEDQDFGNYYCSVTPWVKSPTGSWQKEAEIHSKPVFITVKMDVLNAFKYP

[2] = biological target: T1, PTGFRN as used in the Octet / BLI …; experiment: Bi-Layer Interferometry (BLI), Octet Red96
[3] = biological target: T2, Prostaglandin F2 Receptor Inhibitor (PTGFRN), expressed by cells (human, UniProt Q9P2B2 26-879); experiment: flow binding on cells
T2 construct: whole, on cells; Also used for the endogenous protein in Brij-O10 cell lysates in the co-immunoprecipitation experiments; also called cell surface PTGFRN; prostaglandin F2 receptor negative regulator
T2 sequence (looked up): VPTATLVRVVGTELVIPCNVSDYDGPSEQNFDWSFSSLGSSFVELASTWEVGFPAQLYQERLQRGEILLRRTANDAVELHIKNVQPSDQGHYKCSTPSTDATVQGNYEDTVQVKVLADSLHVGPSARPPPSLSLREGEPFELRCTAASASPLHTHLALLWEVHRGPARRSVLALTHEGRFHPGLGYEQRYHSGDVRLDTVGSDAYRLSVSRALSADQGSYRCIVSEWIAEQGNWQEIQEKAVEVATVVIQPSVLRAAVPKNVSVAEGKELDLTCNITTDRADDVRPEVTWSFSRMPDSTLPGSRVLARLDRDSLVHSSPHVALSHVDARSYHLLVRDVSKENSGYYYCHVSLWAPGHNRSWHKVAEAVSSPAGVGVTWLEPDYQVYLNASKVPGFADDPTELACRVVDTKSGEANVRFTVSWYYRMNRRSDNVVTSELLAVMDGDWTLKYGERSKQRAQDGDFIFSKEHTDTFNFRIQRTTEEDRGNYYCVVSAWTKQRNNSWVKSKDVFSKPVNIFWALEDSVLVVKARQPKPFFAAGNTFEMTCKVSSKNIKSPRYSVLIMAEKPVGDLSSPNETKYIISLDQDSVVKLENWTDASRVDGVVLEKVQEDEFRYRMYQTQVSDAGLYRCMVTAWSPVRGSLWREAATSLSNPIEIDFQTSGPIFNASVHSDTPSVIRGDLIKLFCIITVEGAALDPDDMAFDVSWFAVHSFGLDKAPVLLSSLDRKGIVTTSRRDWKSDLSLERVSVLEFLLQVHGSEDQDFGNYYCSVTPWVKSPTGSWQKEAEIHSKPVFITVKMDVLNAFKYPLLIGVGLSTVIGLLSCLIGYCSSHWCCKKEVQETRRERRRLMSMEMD

B3: fully human anti-PTGFRN monoclonal antibody 6B2 (antibody, IgG1, V domains shown)
VH: QLQLQESGPGLVKPSETLSLTCTVSGGSISSSSYYWDWIRQPPGKGLEWIGTIYYGGSTYYNPSLKSRVTISVDTSKNQFSLKLNSVTAADTAVYYCARGNSYGLDYWGQGTLVTVSS
VL: DVVMTQSPLSLPVTLGQPASISCRSSQSLVHSDGNMYLNWFQQRPGQSPRRLIYKVSNRDSGVPDRFSGSGSGTDFTLKISRVEAEDVGIYYCMQSTHWPPVTFGQGTKLEIK
binding result [3]: binds

B4: fully human anti-PTGFRN monoclonal antibody 12D8 (antibody, IgG1, V domains shown)
VH: EVQLVESGGGLVQPGRSLRLSCAASGFTFDDYAMHWVRQAPGKGLEWVSGISWSSGSLGYEDSVKGRFTISRDNAKKTLYLQMNSLRAEDTALYYCAKDMGFGDFLYYYGMDVWGQGTTVTVSS
VL: EIVLTQSPGTLSLSPGERATLSCRASQSVSSSYLTWYQQKPGQAPRLLIYGASSRATGIPDRFSGSGSGTDFTLTIRRLEPEDFAVYYCQQYGDSPPWTFGQGTKVEIK
binding result [3]: binds

Second part, the binder after the results:

Kd [1]: 5.2 nM
B1: fully human anti-PTGFRN monoclonal antibody 4F8 (antibody, IgG4, V domains shown)
VH: EVQLVESGEGLVQPGRSLRLSCAASGFTFDDYAMHWVRQAPGKGLEWVSGISWDSGRIGYADSVKGRFTISRDNAKNSLYLQMNSLRAEDTALYYCAKDRGGGNWNYYYYGMDVWGQGTTVTVSS
VL: DIQMTQSPSSLSASVGDRVTITCRASQGISNYLAWFQQKPGKAPKSLIYAASSLQSGVPSKFSGSGSGTDFTLTISSLQPEDFATYYCQQYNSFPFTFGPGTKVDIK

Kd [2]: 0.001 nM
B2: fully human anti-PTGFRN monoclonal antibody 8C7 (antibody, V domains shown)
VH: B3 VH with D37G, T52S, K77T, G100Q, N101G, S102L, Y103G, G104S, L105F, Y107C
VL: B3 VL with M36T, R82G, S96G, V102L, Q106G, L110V
notes: also called anti-PTGFRN antibody 8C7; internalizing anti-PTGFRN 8C7
